# Assay results as given in PMC5459902 (Scientific Reports, 2017).
# B1: PnFPOX (Parastagonospora nodorum SN15) (protein)
# chain: MAPSRANTSVIVVGGGGTIGSSTALHLVRSGYTPSNVTVLDAYPIPSSQSAGNDLNKIMGVSLRNPVDLQLALEARQMWNEDELFKKFFHNTGRLDCAHGEKDIADLKSGYQALVDAGLDATNEWLDSEDEILKRMPLLSRDQIKGWKAIFSKDGGWLAAAKAINAVGEYLRDQGVRFGFYGAGSFKAPLLAEGVCIGVETVDGTRYYADKVVLAAGAWSPTLVELHEQCVSKAWVYGHIQLTPEEAARYKNSPVVYNGDVGFFFEPNEHGVIKVCDEFPGFTRFKMHQPFGAKAPKRISVPRSHAKHPTDTIPDASDVSIRRAIATFMPQFKNKKMFNQAMCWCTDTADAALLICEHPEWKNFVLATGDSGHSFKLLPNIGKHVVELLEGTLADDLAHAWRWRPGSGDALKSRRSAPAKDLADMPGWNHDKPRANL
# notes: His-tagged, pET22b (NdeI/XhoI), E. coli BL21(DE3); HisTrap purified; 49 kDa on SDS-PAGE
# Key:
# [1] = target: T1, PnFPOX (Parastagonospora nodorum, UniProt Q0UIL6); experiment: X-ray crystal structure, […] Å; type: binding; settings: covalent; bond to Cys343
# T1 construct: gene SNOG_08398; His-tagged, pET22b (NdeI/XhoI), E. coli BL21(DE3); HisTrap purified; 49 kDa on SDS-PAGE
# T1 sequence (Q0UIL6 1-437): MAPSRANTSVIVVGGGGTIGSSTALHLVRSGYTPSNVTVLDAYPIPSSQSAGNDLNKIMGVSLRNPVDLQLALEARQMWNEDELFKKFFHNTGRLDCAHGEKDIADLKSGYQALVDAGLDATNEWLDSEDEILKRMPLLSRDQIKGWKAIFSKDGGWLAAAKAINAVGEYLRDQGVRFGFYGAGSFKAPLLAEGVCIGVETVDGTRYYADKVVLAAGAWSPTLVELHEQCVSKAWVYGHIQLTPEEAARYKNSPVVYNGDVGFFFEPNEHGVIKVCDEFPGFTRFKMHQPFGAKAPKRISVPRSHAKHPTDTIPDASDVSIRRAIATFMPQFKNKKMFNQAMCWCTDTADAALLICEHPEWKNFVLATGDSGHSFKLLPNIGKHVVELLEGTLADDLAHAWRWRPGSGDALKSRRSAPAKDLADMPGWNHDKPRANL
# [2] = system: CC(C)[C@H](NC[C@@]1(O)OC[C@@H](O)[C@@H](O)[C@@H]1O)C(=O)O; experiment: H2O2 formation, peroxidase-coupled 4-AA/TOOS spectrophotometric assay; type: biochemical, Parastagonospora nodorum; settings: oxidase activity, O2 as electron acceptor, 10 mM potassium phosphate pH 7.0, 298 K, 25.0 °C
# Excerpt: (§1) H2O2 formation, peroxidase-coupled 4-AA/TOOS spectrophotometric assay on PnFPOX
# [3] = substrate: CC(C)[C@H](NC[C@@]1(O)OC[C@@H](O)[C@@H](O)[C@@H]1O)C(=O)O; experiment: as above; type: biochemical, Parastagonospora nodorum; settings: oxidase activity, O2 as electron acceptor, 10 mM potassium phosphate pH 7.0, 298 K, 25.0 °C; remark: listed apart in the source
# Excerpt: as §1
molecule,measurement,setting,value
Cc1cc2nc3c(=O)[nH]c(=O)nc-3n(C[C@H](O)[C@H](O)[C@H](O)COP(=O)(O)OP(=O)(O)OC[C@H]3O[C@@H](n4cnc5c(N)ncnc54)[C@H](O)[C@@H]3O)c2cc1C [FAD],"X-ray crystal structure, 1.83 Å",[1],A covalent bond is formed between FAD and Cys343 of PnFPOX
PnFPOX (Parastagonospora nodorum SN15; D54A/N56A),Km,[2],0.014 ± 0.0012 mM
same,Vmax,[2],0.078 µmol/min/mg
same,Vmax/Km,[2],5730 µL/min/mg
PnFPOX (Parastagonospora nodorum SN15; D54N/N56A),Km,[2],0.046 ± 0.0037 mM
B1,Km,[3],0.359 ± 0.0062 mM
same,Vmax,[3],29.9 µmol/min/mg
same,Vmax/Km,[3],83300 µL/min/mg
